Values quoted from earlier work in publication PMC5298935.

Key:
[1] = target: IRAK1 p173 peptide 157-180 (Homo sapiens) (UniProt P51617); assay: NMR titration
[2] = target: IRAK1 p144 peptide 140-149 (Homo sapiens) (UniProt P51617); assay: NMR titration
[3] = target: IRAK1 p131 peptide UD (Homo sapiens) (UniProt P51617); assay: NMR
[4] = target: IRAK1 p173 peptide UD (Homo sapiens) (UniProt P51617); assay: NMR
[5] = target: IRAK1 p144 peptide UD (Homo sapiens) (UniProt P51617); assay: NMR
IRAK1 p144 peptide UD (Homo sapiens), sequence (P51617 whole entry, looked up, tested part not stated): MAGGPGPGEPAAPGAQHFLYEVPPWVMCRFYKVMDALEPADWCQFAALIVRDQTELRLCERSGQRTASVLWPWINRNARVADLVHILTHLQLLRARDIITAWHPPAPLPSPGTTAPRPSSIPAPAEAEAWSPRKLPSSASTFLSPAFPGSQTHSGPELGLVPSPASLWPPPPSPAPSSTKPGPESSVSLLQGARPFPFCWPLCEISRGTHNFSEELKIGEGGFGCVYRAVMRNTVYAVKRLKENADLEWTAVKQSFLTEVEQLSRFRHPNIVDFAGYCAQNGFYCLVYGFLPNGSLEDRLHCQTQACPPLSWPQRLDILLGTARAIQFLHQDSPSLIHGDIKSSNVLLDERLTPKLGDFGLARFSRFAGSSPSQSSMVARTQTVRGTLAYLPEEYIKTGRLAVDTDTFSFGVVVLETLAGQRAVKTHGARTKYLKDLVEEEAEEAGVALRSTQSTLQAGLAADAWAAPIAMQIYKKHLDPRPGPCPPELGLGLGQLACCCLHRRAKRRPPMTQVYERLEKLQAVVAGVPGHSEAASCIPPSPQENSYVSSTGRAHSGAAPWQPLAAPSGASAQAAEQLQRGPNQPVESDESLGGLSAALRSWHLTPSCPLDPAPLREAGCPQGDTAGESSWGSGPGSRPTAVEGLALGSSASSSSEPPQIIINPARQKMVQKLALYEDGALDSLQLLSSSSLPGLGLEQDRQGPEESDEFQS

Pin1 WW, sequence (Q13526 2-42): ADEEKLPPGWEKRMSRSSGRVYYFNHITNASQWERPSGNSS
Pin1 WW domain 1-50, sequence (Q13526 1-50): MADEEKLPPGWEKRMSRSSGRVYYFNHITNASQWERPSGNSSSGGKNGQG
IRAK1 p131 peptide UD (Homo sapiens), sequence (P51617 whole entry, looked up, tested part not stated): as the sequence (P51617 whole entry, looked up, tested part not stated) above
IRAK1 p144 peptide 140-149 (Homo sapiens), sequence (P51617 whole entry, looked up, tested part not stated): as above
IRAK1 p173 peptide UD (Homo sapiens), sequence (P51617 whole entry, looked up, tested part not stated): as above
IRAK1 p173 peptide 157-180 (Homo sapiens), sequence (P51617 157-180): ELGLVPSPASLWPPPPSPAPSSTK

Substance	Kd [1]	Kd [2]	Kd [3]	Kd [4]	Kd [5]
Pin1 WW domain 1-50 (from UniProt Q13526)	260 µM	120 µM			
Pin1 WW (from UniProt Q13526)			220 µM	260 µM	120 µM
